Reference: article PMC3088709, “Phosphorylation of the Yeast γ-Tubulin Tub4 Regulates Microtubule Function” (PLoS ONE, 2011)

Target: T1, Spc97-3HA (S. cerevisiae, UniProt P38863 1-823)
T1 construct: Spc97, budding yeast; tagged with 3HA in the TUB4-AID strain; source: S. cerevisiae (TUB4-AID SPC97-3HA strain), in lysate
T1 sequence (looked up): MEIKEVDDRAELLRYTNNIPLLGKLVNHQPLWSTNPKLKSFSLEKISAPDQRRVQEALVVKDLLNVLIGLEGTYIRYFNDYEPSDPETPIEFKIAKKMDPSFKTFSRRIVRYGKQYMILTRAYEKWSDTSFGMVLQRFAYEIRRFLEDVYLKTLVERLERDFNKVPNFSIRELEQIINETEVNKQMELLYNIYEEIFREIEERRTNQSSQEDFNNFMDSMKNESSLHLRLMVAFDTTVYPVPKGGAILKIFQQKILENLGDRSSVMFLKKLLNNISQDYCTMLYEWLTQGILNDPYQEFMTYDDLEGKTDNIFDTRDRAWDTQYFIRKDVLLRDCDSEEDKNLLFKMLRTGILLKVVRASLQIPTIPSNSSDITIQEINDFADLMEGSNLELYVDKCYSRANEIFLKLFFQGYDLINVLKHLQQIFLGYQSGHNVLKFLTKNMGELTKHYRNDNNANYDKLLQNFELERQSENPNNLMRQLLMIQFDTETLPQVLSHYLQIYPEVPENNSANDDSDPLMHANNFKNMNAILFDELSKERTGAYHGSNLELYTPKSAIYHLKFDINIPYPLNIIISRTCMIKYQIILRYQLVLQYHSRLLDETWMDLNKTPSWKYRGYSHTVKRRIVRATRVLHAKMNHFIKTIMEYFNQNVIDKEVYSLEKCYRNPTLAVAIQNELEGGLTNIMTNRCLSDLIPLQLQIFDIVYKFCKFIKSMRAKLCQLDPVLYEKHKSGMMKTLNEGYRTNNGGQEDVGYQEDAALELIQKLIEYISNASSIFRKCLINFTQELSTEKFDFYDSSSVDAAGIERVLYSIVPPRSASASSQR
Assay: co-IP; anti-HA immunoprecipitation of Spc97-3HA from lysates of TUB4-AID SPC97-3HA cells carrying pRS305 with TUB4, tub4-S74E, tub4-S100E or tub4-S360D, after 2 h of 0.5 mM IAA at 30°C to deplete Tub4-AID; blots with anti-Tub4, anti-Spc98, anti-Spc110 and anti-HA, normalised to precipitated Spc97-3HA
Conditions: partners not purified

B1: Tub4-S74E (natural protein, S. cerevisiae, UniProt P53378 1-473, looked up)
chain: MGGEIITLQAGQCGNHVGKFLWSQLAKEHAIGTDGLSQLPDSSTERDDDTKPFFRENSRNKFTPRAIMMDSEPEVIADVENTFRGFFDPRNTWVASDGASAGNSWANGYDIGTRNQDDILNKIDKEIDSTDNFEGFQLLHSVAGGTGSGLGSNLLEALCDRYPKKILTTYSVFPARSSEVVVQSYNTILALRRLIEDSDATVVFDNASLLNISGKVFRNPNIDLQHTNQLISTIISSVTNSIRFPSYMYSSMSSIYSTLIPSPELHFLSPSFTPFTSDYIHDDIAHKGHSSYDVMLDLLDPSNSLVSTAMNNPTYFNVYNTIIGNVEPRQISRAMTKLQQRIKFPSWSSSAMHVNIGRRSPYLPLQPNENEVSGMMLSNMSTVVNVFENACNTFDKVFAKGAFLNNYNVGDLFQSMQNVQDEFAESREVVQSLMEDYVAAEQDSYLDDVLVDDENMVGELEEDLDADGDHKLV
notes: Tub4, gamma-tubulin of budding yeast, phospho-mimicking mutant; source: S. cerevisiae, from integrated pRS305-tub4-S74E, in lysate
  amount in complexes with Spc97-3HA relative to WT Tub4: ~75 % of WT Tub4
